Entries after “also recorded” stand apart in the source; their conditions may differ.
How the values were obtained:
[1] = test system: alkaline phosphatase (ALP) activity in hMSC cells; experiment: alkaline phosphatase activity in differentiating hMSC cells; assay type: cell-based, human; settings: for basal alkaline phosphatase activity, increasing concentrations (dose-dependent) / ALP activity: hMSC cells, Osteoblast-Inducing media; for ALP activity: 7 days
Procedure: (§1) hMSC cells were plated in 96-well tissue culture dishes at a density of 10,000 cells/cm^2 in Osteoblast-Inducing medium. Partially purified preparations of baculovirus-expressed sclerostin protein were prepared in sterile PBS using NAP-5 columns prior to use. Human sclerostin protein (0 to 30 μg/ml) or an equal volume of Sf9 conditioned media (Control) was added to cultures of hMSC cells at various times after plating (1 day, 8 days, 15 days, or 21 days). The effects of sclerostin on osteoblastic differentiation were assessed by measuring alkaline phosphatase activity (ALP, determined in cell layers using DEAA buffer (Pierce) containing 0.5% NP-40 and 10 mM p-nitrophenylphosphate), synthesis of collagen type I (Prolagen C ELISA), and calcium deposition for mineralization (colorimetric assay of acid lysates of cell layers, Sigma).

[2] = test system: alkaline phosphatase activity in primary human osteoblasts; experiment: histochemical staining for alkaline phosphatase in primary human osteoblasts; assay type: cell-based; settings: primary human osteoblasts in Inducing media, Sclerostin 20 μg/ml, 7 days
Procedure: Primary human osteoblasts were grown in regular growth media or in Inducing media (to promote differentiation) and then treated with Sclerostin (20 μg/ml) or Control (protein purified from Sf9 conditioned media) for 7 days prior to histochemical staining for alkaline phosphatase activity. Osteoblasts grown in regular growth media expressed low, basal levels of ALP (“No Treatment,” far right panel).

[3] = test system: type I collagen synthesis in hMSC cells; experiment: synthesis of collagen type I in hMSC cells (Prolagen C ELISA); assay type: cell-based, human
Procedure: FIG. 13 illustrates that partially purified preparations of human sclerostin reduce the synthesis of type I collagen by about 50% in cells treated with 10 μg/ml of sclerostin (p<0.001 to control). hMSC cells were cultured in Osteoblast-Inducing media and treated with partially-purified sclerostin protein or proteins purified from Sf9 conditioned media (Control) for 21 days. Sclerostin or Control at the indicated concentrations was added 8 days after plating.
as §1

[4] = test system: BMP-6 stimulated alkaline phosphatase activity; experiment: BMP-6 stimulated alkaline phosphatase activity in mouse mesenchymal C3H10T1/2 cells; assay type: cell-based
Procedure: C3H10T1/2 cells (ATCC Deposit No. CCL-226) were plated in 96-well dishes at a density of 25,000 cells per well in complete growth medium (DMEM with high glucose and glutamine supplemented with 10% FCS, 1% penicillin/streptomycin, 0.1 mM non-essential amino acids, 1 mM sodium pyruvate, 55 μM β-mercaptoethanol, and 20 mM HEPES, pH 7.3). C3H10T1/2 cells were used in a short-term (72 hr) assay to determine the effects of human sclerostin protein on BMP-induced ALP activity. Partially purified preparations of bacculovirus-expressed sclerostin protein were prepared in sterile PBS using NAP-5 columns prior to use. Sclerostin protein (0 to 50 μg/ml) or an equal volume of Sf9 conditioned media (control) was pre-incubated with 500 ng/ml BMP-6 for 1 hr prior to addition to cells. For comparison, similar incubations were carried out with anti-BMP-6 antibody and noggin. Cells were harvested 72 hrs later for determination of ALP activity.
To test the specificity of the sclerostin effect, human sclerostin that was synthesized with a FLAG tag, was pre-incubated for 2 hrs at 4° C. with an anti-FLAG antibody coupled to agarose beads. The mixture was then spun down at 10,000×g for 15 minutes at 4° C. and the supernatant treated as “sclerostin protein” in the above assay.

hMSC cells [5] = experiment: apoptosis of hMSC cells by histone-associated DNA fragmentation ELISA; assay type: cell-based, human; settings: increasing amounts of sclerostin, 24 hrs
Procedure: (§2) Human mesenchymal (hMSC) cells were plated in Osteoblast-inducing media (Biowhittaker's MSCGM medium supplemented with 100 nM dexamethasone, 50 μg/ml ascorbic acid, and 10 mM β-glycerophosphate) at a density of 10,000 cells/cm^2 in 96-well dishes.
For apoptosis assays, cells were treated with sclerostin or commercially available preparations of the BMP antagonists noggin, chordin, gremlin or twisted gastrulation (Tsg) for 24 hours prior to assay for caspase activity. In some experiments, cells were treated for various times with a partially purified preparation of baculovirus-expressed human sclerostin (0 to 30 μg/ml) or an equal volume of a protein preparation purified from Sf9 conditioned media (control) in the absence or presence of Calbiochem's caspase inhibitors. Cells were harvested and processed for apoptosis assays using the Homogeneous Caspase ELISA (Roche) or Cell Death (Histone-Associated DNA Fragmentation, Roche).

hMSC cells [6] = experiment: apoptosis of hMSC cells by TUNEL staining; assay type: cell-based, human; settings: Sclerostin 20 μg/ml, 24 hrs
Procedure: as §2
For apoptosis determination by TUNEL staining, cells were treated for 24 hrs with a partially purified preparation of bacculovirus-expressed human sclerostin (20 μg/ml) or an equal volume of a protein preparation purified from Sf9 conditioned media (control). Cells were fixed with paraformaldehyde and processed using Roche's In Situ Cell Death Detection kit.

apoptosis genes = experiment: Apoptosis Gene Array of hMSC treated with sclerostin; assay type: cell-based, human
Procedure: In another study, hMSC were treated with vehicle or sclerostin for 6 hrs or 48 hrs. Cells were harvested, RNA prepared and used for the analysis of a commercially available Apoptosis Gene Array (SuperArray, Bethesda, Md.). To further investigate the effects of sclerostin on the apoptosis of hMSC, RNA was harvested from vehicle and sclerostin-treated cells and used the RNA to probe a cDNA expression array containing apoptosis genes. The results for vehicle and sclerostin-treated samples were compared and data (corrected for background) were expressed as a ratio of sclerostin to vehicle.

[7] = test system: alkaline phosphatase (ALP) activity in hMSC cells; experiment: alkaline phosphatase activity in differentiating hMSC cells; assay type: cell-based, human; settings: BMP-6 500 ng/ml plus increasing concentrations of sclerostin-Flag protein
[8] = hMSC, 6 hrs, Anti-apoptotic gene
[9] = hMSC, 48 hrs, Anti-apoptotic gene
[10] = hMSC, 48 hrs, Proapoptotic gene

B1: sclerostin: partially purified baculovirus-expressed human sclerostin protein, SOST gene product (SEQ ID NO:3); also made with a FLAG tag (protein, listed as Homo sapiens)
chain: MQLPLALCLVCLLVHTAFRVVEGQGWQAFKNDATEIIPELGEYPEPPPELENNKTMNRAENGGRPPHHPFETKDVSEYSCRELHFTRYVTDGPCRSAKPVTELVCSGQCGPARLLPNAIGRGKWWRPSGPDFRCIPDRYRAQRVQLLCPGGEAPRARKVRLVASCKCKRLTRFHNQSELKDFGTEAARPQKGRKPRPRARSAKANQAELENAY
modifications: optional FLAG tag
decrease of alkaline phosphatase activity ([1]; hMSC cells treated with about 10 to 15 μg/ml of the protein, p<0.001 to control): about 50%
basal alkaline phosphatase activity, increasing concentrations (dose-dependent) [1]: significantly reduced; also recorded: decreased
ALP activity ([1]; protein at 1 μg/ml): decreased
ALP activity ([1]; protein at 5 μg/ml): decreased
basal alkaline phosphatase activity, increasing concentrations (dose-dependent) ([1]; listed as Sclerostin): decreased
basal alkaline phosphatase activity, increasing concentrations (dose-dependent) ([1]; listed as human sclerostin): decreases
amount of ALP expressed (histochemical stain) [2]: marked decrease
reduction of synthesis of type I collagen ([3]; hMSC cells, 10 μg/ml of sclerostin, 21 days, p<0.001 to control): about 50%
synthesis of collagen type I, dose dependence ([3]; hMSC cultures): decreased in a dose-dependent manner
stimulatory effect of BMP-6 on alkaline phosphatase activity (antagonism) ([4]; 500 ng/ml BMP-6, 72 hrs): antagonized
antagonism of BMP-6 after immuno-depletion with anti-Flag M2 antibody/agarose complex ([4]; Flag-tagged sclerostin preparation): completely abolished
IC50, decrease of BMP-6 stimulated alkaline phosphatase activity ([4]; pre-incubated with 500 ng/ml BMP-6 for 1 hr, 72 hrs): 10 µg/mL
amounts of histone-DNA fragments (hMSC cells [5]): significantly elevated; also recorded: greater amounts of histone-DNA fragments
Tunel staining for apoptotic nuclei (hMSC cells [6]): Increased staining for apoptotic nuclei
Tunel staining for apoptotic nuclei (hMSC cells [6]; listed as human sclerostin): undergo apoptosis
increase in the expression of apoptosis-associated genes and genes involved in cell survival (apoptosis genes; hMSC treated for 6 hrs with sclerostin): 2 to 4 fold
Ratio of sclerostin to vehicle, Bruce (apoptosis genes; [8]): 1.45 ± 0.75
Ratio of sclerostin to vehicle, Survivin, IAP2 (apoptosis genes; [8]): 1.32 ± 0.48
Ratio of sclerostin to vehicle, XIAP (apoptosis genes; [8]): 2.01 ± 0.64
Ratio of sclerostin to vehicle, BAX (apoptosis genes; hMSC, 6 hrs, Proapoptotic gene): 1.53 ± 0.2
Ratio of sclerostin to vehicle, Bcl10 (apoptosis genes; hMSC, 6 hrs, Proapoptotic gene): 4.09 ± 2.13
Ratio of sclerostin to vehicle, Caspase 3 (apoptosis genes; hMSC, 6 hrs, Proapoptotic gene): 2.46 ± 0.69
Ratio of sclerostin to vehicle, Caspase 4 (apoptosis genes; hMSC, 6 hrs, Proapoptotic gene): 1.83 ± 1.12
Ratio of sclerostin to vehicle, Caspase 7 (apoptosis genes; hMSC, 6 hrs, Proapoptotic gene): 1.76 ± 0.18
Ratio of sclerostin to vehicle, Hrk (apoptosis genes; hMSC, 6 hrs, Proapoptotic gene): 1.59 ± 0.39
Ratio of sclerostin to vehicle, Myd88 (apoptosis genes; hMSC, 6 hrs, Proapoptotic gene): 1.4 ± 0.31
Ratio of sclerostin to vehicle, Casper (apoptosis genes; [9]): 2.68 ± 0.28
Ratio of sclerostin to vehicle, I-TRAF (apoptosis genes; [9]): 2.05 ± 0.54
Ratio of sclerostin to vehicle, Mdm2 (apoptosis genes; [9]): 1.66 ± 0.34
Ratio of sclerostin to vehicle, Bak1 (apoptosis genes; [10]): 2.36 ± 0.74
Ratio of sclerostin to vehicle, Bax (apoptosis genes; [10]): 1.64 ± 0.3
Ratio of sclerostin to vehicle, Bcl10 (apoptosis genes; [10]): 1.84 ± 0.76
Ratio of sclerostin to vehicle, Blk (apoptosis genes; [10]): 1.83 ± 0.12
Ratio of sclerostin to vehicle, Myd88 (apoptosis genes; [10]): 2.64 ± 1.3
BMP-6 induced alkaline phosphatase activity [7]: reduced; also recorded: decreased

Source: US7655420B2, “Methods to increase or decrease bone density” (Celltech R & D, Inc., priority 2002, dated 2010)
